The supplement of paper PMC10567573

B1: APBB1IP (parent)
chain: FNYSVGFKDLNESLNALEDQDLDA

Variants of: B1
Assay: protein stability index of a GFP-peptide fusion (GPS, HEK-293T) (PSI 1-6); higher = more stable
Details: c terminus: a fixed tail appended
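Note: lentivirally expressed fusions sorted by FACS into six bins by GFP to DsRed ratio, PSI derived from sequencing read proportions per bin multiplied by bin number.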

Going from LNYSVGFKDLNESLNALEDQDLDA [F1L] to MNYSVGFKDLNESLNALEDQDLDA [F1M], the protein stability index rises from 4.7 to 5.31.

Compared with NNYSVGFKDLNESLNALEDQDLDA [F1N], PNYSVGFKDLNESLNALEDQDLDA [F1P] is lower in protein stability index: 5.51 for the first, 5.21 for the second.

Going from QNYSVGFKDLNESLNALEDQDLDA [F1Q] to RNYSVGFKDLNESLNALEDQDLDA [F1R], the protein stability index rises from 5.38 to 5.42.

Compared with SNYSVGFKDLNESLNALEDQDLDA [F1S], TNYSVGFKDLNESLNALEDQDLDA [F1T] is higher in protein stability index: 4.44 for the first, 5.35 for the second.

Going from VNYSVGFKDLNESLNALEDQDLDA [F1V] to WNYSVGFKDLNESLNALEDQDLDA [F1W], the protein stability index falls from 4.66 to 4.53.

First: YNYSVGFKDLNESLNALEDQDLDA [F1Y]
Second: FAYSVGFKDLNESLNALEDQDLDA [N2A]
The protein stability index of the first is higher: 4.91 for the first, 2.07 for the second.

Going from FCYSVGFKDLNESLNALEDQDLDA [N2C] to FDYSVGFKDLNESLNALEDQDLDA [N2D], the protein stability index rises from 2.18 to 5.38.

Going from FEYSVGFKDLNESLNALEDQDLDA [N2E] to FFYSVGFKDLNESLNALEDQDLDA [N2F], the protein stability index falls from 4.45 to 3.07.

First: FGYSVGFKDLNESLNALEDQDLDA [N2G]
Second: FHYSVGFKDLNESLNALEDQDLDA [N2H]
The protein stability index of the first is higher: 4.39 for the first, 1.98 for the second.

First: FIYSVGFKDLNESLNALEDQDLDA [N2I]
Second: FKYSVGFKDLNESLNALEDQDLDA [N2K]
The protein stability index of the first is higher: 4.43 for the first, 4.11 for the second.

Going from FLYSVGFKDLNESLNALEDQDLDA [N2L] to FMYSVGFKDLNESLNALEDQDLDA [N2M], the protein stability index falls from 2.01 to 1.99.

Compared with FPYSVGFKDLNESLNALEDQDLDA [N2P], FQYSVGFKDLNESLNALEDQDLDA [N2Q] is higher in protein stability index: 2.44 for the first, 2.88 for the second.

Going from FRYSVGFKDLNESLNALEDQDLDA [N2R] to FSYSVGFKDLNESLNALEDQDLDA [N2S], the protein stability index falls from 3.26 to 2.64.

Going from FTYSVGFKDLNESLNALEDQDLDA [N2T] to FVYSVGFKDLNESLNALEDQDLDA [N2V], the protein stability index rises from 2.23 to 2.96.

Compared with FWYSVGFKDLNESLNALEDQDLDA [N2W], FYYSVGFKDLNESLNALEDQDLDA [N2Y] is higher in protein stability index: 2.4 for the first, 2.72 for the second.

First: FNASVGFKDLNESLNALEDQDLDA [Y3A]
Second: FNCSVGFKDLNESLNALEDQDLDA [Y3C]
The protein stability index of the first is higher: 5.06 for the first, 4.74 for the second.

First: FNDSVGFKDLNESLNALEDQDLDA [Y3D]
Second: FNESVGFKDLNESLNALEDQDLDA [Y3E]
The protein stability index of the first is lower: 4.89 for the first, 5.43 for the second.

Going from FNFSVGFKDLNESLNALEDQDLDA [Y3F] to FNGSVGFKDLNESLNALEDQDLDA [Y3G], the protein stability index rises from 3.71 to 4.82.

First: FNHSVGFKDLNESLNALEDQDLDA [Y3H]
Second: FNISVGFKDLNESLNALEDQDLDA [Y3I]
The protein stability index of the first is lower: 4.07 for the first, 4.21 for the second.

Going from FNKSVGFKDLNESLNALEDQDLDA [Y3K] to FNLSVGFKDLNESLNALEDQDLDA [Y3L], the protein stability index falls from 5.17 to 4.52.

First: FNMSVGFKDLNESLNALEDQDLDA [Y3M]
Second: FNNSVGFKDLNESLNALEDQDLDA [Y3N]
The protein stability index of the first is lower: 4.4 for the first, 5.12 for the second.

First: FNPSVGFKDLNESLNALEDQDLDA [Y3P]
Second: FNQSVGFKDLNESLNALEDQDLDA [Y3Q]
The protein stability index of the first is lower: 5.15 for the first, 5.36 for the second.

First: FNRSVGFKDLNESLNALEDQDLDA [Y3R]
Second: FNSSVGFKDLNESLNALEDQDLDA [Y3S]
The protein stability index of the first is higher: 5.36 for the first, 4.76 for the second.

Compared with FNTSVGFKDLNESLNALEDQDLDA [Y3T], FNVSVGFKDLNESLNALEDQDLDA [Y3V] is lower in protein stability index: 5.54 for the first, 3.54 for the second.

Compared with FNWSVGFKDLNESLNALEDQDLDA [Y3W], FNYAVGFKDLNESLNALEDQDLDA [S4A] is higher in protein stability index: 3.87 for the first, 4.53 for the second.

First: FNYCVGFKDLNESLNALEDQDLDA [S4C]
Second: FNYDVGFKDLNESLNALEDQDLDA [S4D]
The protein stability index of the first is lower: 4.31 for the first, 5.11 for the second.

Going from FNYEVGFKDLNESLNALEDQDLDA [S4E] to FNYFVGFKDLNESLNALEDQDLDA [S4F], the protein stability index falls from 5.53 to 3.24.

Compared with FNYGVGFKDLNESLNALEDQDLDA [S4G], FNYHVGFKDLNESLNALEDQDLDA [S4H] is lower in protein stability index: 4.88 for the first, 4.79 for the second.

First: FNYIVGFKDLNESLNALEDQDLDA [S4I]
Second: FNYKVGFKDLNESLNALEDQDLDA [S4K]
The protein stability index of the first is lower: 3.76 for the first, 4.02 for the second.

Going from FNYLVGFKDLNESLNALEDQDLDA [S4L] to FNYMVGFKDLNESLNALEDQDLDA [S4M], the protein stability index rises from 3.71 to 4.23.

First: FNYNVGFKDLNESLNALEDQDLDA [S4N]
Second: FNYPVGFKDLNESLNALEDQDLDA [S4P]
The protein stability index of the first is higher: 4.61 for the first, 3.29 for the second.

Compared with FNYQVGFKDLNESLNALEDQDLDA [S4Q], FNYRVGFKDLNESLNALEDQDLDA [S4R] is lower in protein stability index: 5.1 for the first, 4.82 for the second.

First: FNYTVGFKDLNESLNALEDQDLDA [S4T]
Second: FNYVVGFKDLNESLNALEDQDLDA [S4V]
The protein stability index of the first is higher: 4.62 for the first, 3.72 for the second.

First: FNYWVGFKDLNESLNALEDQDLDA [S4W]
Second: FNYYVGFKDLNESLNALEDQDLDA [S4Y]
The protein stability index of the first is lower: 2.56 for the first, 3.42 for the second.

Compared with FNYSAGFKDLNESLNALEDQDLDA [V5A], FNYSCGFKDLNESLNALEDQDLDA [V5C] is lower in protein stability index: 4.95 for the first, 4.08 for the second.

Going from FNYSDGFKDLNESLNALEDQDLDA [V5D] to FNYSEGFKDLNESLNALEDQDLDA [V5E], the protein stability index falls from 4.65 to 4.47.

Going from FNYSFGFKDLNESLNALEDQDLDA [V5F] to FNYSGGFKDLNESLNALEDQDLDA [V5G], the protein stability index falls from 4.34 to 4.19.

First: FNYSHGFKDLNESLNALEDQDLDA [V5H]
Second: FNYSIGFKDLNESLNALEDQDLDA [V5I]
The protein stability index of the first is higher: 4.76 for the first, 4.38 for the second.

Going from FNYSKGFKDLNESLNALEDQDLDA [V5K] to FNYSLGFKDLNESLNALEDQDLDA [V5L], the protein stability index falls from 4.65 to 4.55.

First: FNYSMGFKDLNESLNALEDQDLDA [V5M]
Second: FNYSNGFKDLNESLNALEDQDLDA [V5N]
The protein stability index of the first is higher: 4.51 for the first, 4.36 for the second.

First: FNYSPGFKDLNESLNALEDQDLDA [V5P]
Second: FNYSQGFKDLNESLNALEDQDLDA [V5Q]
The protein stability index of the first is higher: 4.99 for the first, 4.65 for the second.

Going from FNYSRGFKDLNESLNALEDQDLDA [V5R] to FNYSSGFKDLNESLNALEDQDLDA [V5S], the protein stability index rises from 4.82 to 4.86.

First: FNYSTGFKDLNESLNALEDQDLDA [V5T]
Second: FNYSWGFKDLNESLNALEDQDLDA [V5W]
The protein stability index of the first is higher: 4.96 for the first, 3.68 for the second.

Compared with FNYSYGFKDLNESLNALEDQDLDA [V5Y], FNYSVAFKDLNESLNALEDQDLDA [G6A] is lower in protein stability index: 4.09 for the first, 3.34 for the second.

First: FNYSVCFKDLNESLNALEDQDLDA [G6C]
Second: FNYSVDFKDLNESLNALEDQDLDA [G6D]
The protein stability index of the first is lower: 3 for the first, 4.85 for the second.

Going from FNYSVEFKDLNESLNALEDQDLDA [G6E] to FNYSVFFKDLNESLNALEDQDLDA [G6F], the protein stability index falls from 4.2 to 2.58.

First: FNYSVHFKDLNESLNALEDQDLDA [G6H]
Second: FNYSVIFKDLNESLNALEDQDLDA [G6I]
The protein stability index of the first is higher: 3.71 for the first, 3.03 for the second.
